For the assay, the target named is T1, recombinant Caulobacter FtsZ (Caulobacter crescentus, UniProt B8H080 1-508).
T1 sequence (looked up): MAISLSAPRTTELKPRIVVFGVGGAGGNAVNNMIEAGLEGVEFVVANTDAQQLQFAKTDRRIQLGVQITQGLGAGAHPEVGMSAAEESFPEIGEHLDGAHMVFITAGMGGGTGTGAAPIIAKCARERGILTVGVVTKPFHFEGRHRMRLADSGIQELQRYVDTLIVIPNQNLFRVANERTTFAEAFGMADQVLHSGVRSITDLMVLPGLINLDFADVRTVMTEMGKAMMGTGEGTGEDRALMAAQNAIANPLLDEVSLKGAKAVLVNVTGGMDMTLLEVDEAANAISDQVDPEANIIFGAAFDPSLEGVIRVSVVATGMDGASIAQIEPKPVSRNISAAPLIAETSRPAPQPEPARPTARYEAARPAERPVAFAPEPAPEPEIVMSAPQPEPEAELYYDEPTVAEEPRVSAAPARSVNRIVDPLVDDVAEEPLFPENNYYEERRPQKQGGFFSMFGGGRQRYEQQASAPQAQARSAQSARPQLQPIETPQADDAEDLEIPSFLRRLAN
The assay can be described thus: right angle light scattering.

The results in this text go back to publication PMC2945607 (Molecular cell, 2010).

B1: His6-FzlA (natural protein, Caulobacter crescentus, UniProt Q9A2C6 1-228, looked up)
chain: MSVERTLHHFPLDPASRQVRLALGEKRLPFVEMQVRYWEMPPEFTSLNPSGMPPVLVETKHQRNLVICETRAILEHIEETETEPPLLGRDPAERAEARRLLQWFDRKFDNEVNGFLLHEKMEKRLLRMGAPDLAALRQGREALRMHLGYIESLLQTRDWLAGRRMSLADFAAAAHLSVIDYFGDVPWKDFQAAKTWYMKLKSRPCFRPILADRWPGLAPAAHYDDLDF
In the case of B1, the “fold increase in light scattering at steady state against FtsZ without FzlA” value is above 10 fold.
